From a protein production outcome set (Wang et al. 2014)

Experiment: label from the status in PepcDB records
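Also: failed if final PepcDB status was selected cloned or expressed and not failed if soluble or beyond.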

Sequence	protein production
VEFSTLPAGPPAPPQDVTVQAGVTPATIRVSWRPPVLTPTGLSNGANVTGYGVYAKGQRVAEVIFPTADSTAVELVRLRSLEAKGVTVRTLSAQGESVDSAVAAVPPELLVPPTPHP	not failed
MSIRIDRQRCIGCGKCAEICPGNLIVIDEDKKAFVRDPRDCWGCAACVKECKFSAIRYFLGAEIGGNGTTMYVEKENDEIMYWYFEKPSGEKEMIVQNLKDNTTYLEHHHHHH	failed
MKRRLLCALLASTLAQPLTVRADLPDLGEISDASLSLSDEARIGRDALRAMREAGDVVDDPEVNAYLNDVGGRLAAAAAVPGVRFTYFCVADAGINAFAMPGGYVGINIGLMLASQSEGELAAVLGHETAHVAQRHIARMQAANSAASPLLLLGTIVAAALAAKAGSGDGAMGAVSAGMGLSISRQLAFSRDFEREADRVGMQYMSAAGFDVRNMAAFFQRLEQASRYSDNTAYAFLRTHPVTLERISEAQNRALDYPVRMRADSVDYLLVREKLRVLTLSPEEAVSHYSSALQRGLYLNEGANWYGLARAKLLQHDRAGASEALAKARAKLPDNPMLYGLEVEIARDGRDWAAAARAARNGLSAFPRSVSLQLAQLDVALDGGDRKAAQAQLRQLLDSRRDDPALYRREAKLYADKDPLRYHAALGNAFYYEQRYGAALEQYQLAGKAKGDDFYLRSMLEARLREVEKLAKEERKAARNLEHHHHHH	not failed
MSSTAPASQSTAEALEATASLPQAAVHDHASIMRVIGGIVLCILLAALDQTVVIPAVPAIANDLNGFGHLSWIVTAYLIVSTVTTPLYGKLSDSFGRRRLLMVAISLFILASVACALAQTLPQLILFRALQGLGGGGLMSLAQAAIADVVAPRERGRYQGYLATVWAISSIAGPLVGGWVSDHMSWRWLFWINVPLGLLAMTMCYRGLAHLKPRGGRPQVDWLGALLLAVAIVAFLLAMSWGGEAFAWISPEMAALLAISLVAVLLLAWQERRAADPMLPPRLFRNRAYVMGVGASALAALNIFLCIFALPLHFQLVRDADASMSGLLVVPFLLATVAGNFVVAWLAPRLGRMRVILTIGFVAAAVGLVSLAAVTVAVPTFFVLLAMTIGGIGLGMAMVGTLISVQNALERRDMGAGTGALLVLRSLGSSIGGALAGTLLAMEFRDALARAGVTQALDLGALRHGSEALAHLSPAVRHVLAGGVESGFHLIFAAGAVATIIALLIVRRMPDLELRSSVTEHAAKIHME	failed
MLVESFNPFNNLLLSSIVAAIPIILFLLCLTVFKMKGVYAAITTLIVTIIVAMAFFKLPGSIAGGATLEGFYQGIIPIGFIVIMAVWLYKIATKSGQFAIVQDSIASVSRDQRVQLLLIGFVFNGFLEGAAGFGVPIAICAVLLTQLGFKPLQAAMYCLVSNAAAGAYGAVGIPIAIVDTLNLPGGVTTSQVALIGNLTLGFISFVVPFLLMYIMDGFKGVKETFPATLVVAVTFTVLQVLIAAFAGPELADIIPGLVAMIALALFSKKWQPKNIFRINKDEKADAVPKHSIGHITYAWSPFIILTIVVMIWSLPAFKGLFEKGGALSALVVNFNVPGTMNAVTNKPNELTFNFFAQTGTAILITAIITIIIAKNMSFKTAGHLLGLTVKELWISVLTICFILAVSKITTYGGLSNAMGQGISKTGAAFPLLSPLLGWIGVFMTGSVVNNNSLFAPIQASVAEQIGTKGSLLVAANVAGGVTAKIVSPQSIAIATAAVNKVGKESELMKMAMRFSIGLLILVCIWTFICSLFIS	failed
MSKLSIRNLTKIFGPHPEKALGLLEQGLGKEEIHRRTSHAVGVDRASFDVEEGEIVVVMGLSGSGKSTLVRCLNRLIEPTAGTVTVDGRDVTSMPVDELRRLRQRSFGMVFQNFALFPHRTVLQNAAFGLEAMGVPRAERERQAMVSLERVGLAEWAASRPAQLSGGMQQRVGLARALSLDPDILLMDEAFSALDPLIRRDMQDELLRLQDDLQKTIVFISHDLDEALKLGDRIVLMRDGAVVQIGTPEDILTNPADDYVARFVGEADVTKVLTAGSVMKRSEAVAVLGIDGPRTALRKMRRNAIATLFVLDERHRLVGLITADDAARLAAEGVRELGSIVRRDIATVPPEAPATELISLMADLPHPLAVVDERGRLAGVIVRGLLLGALAERGGVALEHHHHHH	not failed
LYQGFEKEFGRPLSPIELEMIGQWLNTDHYSPELIRLALREAVLNQAYSLKYIDRILLAWERKNITTKEQVAA	failed
MGCGFSRQHVVKTNVSSFDRELLDLKIQRDSLQQYEQRLSDSLKNYIKLARRLVAENQRQQALVVLQVKHALQKSIEKAQNMRFNLEQVLSEIELKQIETDYVLKLRTGTKLLQSIQKTLSIEEIEHLLEETKEAIEFQNKVTEVLGSFSLMEIDESCEEELEQLETAMFPPVPKRLEKTMTPQVTENMQVKSETAKEYSKQESILLPS	not failed
MRNSNGGRDNRKSNRDQYRKPDYAGEMLFDDEEDYDDDADYDVVDDMKAHNDDYSDSAFGPDADNYDTDDDAWHDDVAAADDDPSDEDGYYDEEYDDTEDWQDMKDSKRKKKNRVWGIILALEIVTAIVIGVLFVKSYINNTYSKMQYNELKNTHINEDLNEESVKKMTGYTNIALFGIDTRDSGMVDDGVRSDSIIICSINNDTQEVKLLSVYRDTYLELCNDSQSYEKAAHAYAYGGAQGAVNMLNKNLDLNITDYVAVNFTALTEAIDALGGIDVELKEEELYKLNQCIDEQMGVNGIYSDYVYDTGVVHLNGVQATAYSRIRSTDEGDITRTWRQRTVISKMIEAAKSAGLSRLLDCINVVVDDVASSLTESEIMDMAKSCFNYKLSTTTGFPFTIASPTMNDVSYVVACDLATNATALHRFLFNDSNYTPSATVQNISDNIVNESGYGNQLDLDTFTVEDDVDSIVNTESDDY	failed
MTKLALFVRLEAKPGQEAALADFLASALPLANAESGTTAWFALKFGPSTFGVFDAFADEAGRQAHLNGQIAAALMANAATLLSSPPNIEKVELLAAKLPA	not failed
MAFDAARYVHRYYASLAPAPGNEYPRLRAWEYLWEYVWDPSRSWDDLTAPEQLDTTALHLGFYLANWGMFRGSSGLLQNSNLDLMKALARQLFSGAGPELFELSLVDFAGNGARLAHNRKLLETVLGSMDALSSRVSWTDTLKSKILLGVWGEFPALDRHYVAACRALYPRRGLTSVNGGTLTALHRLIGEERLSFPRLETARKGLLYPTGRLADMAFFQYGLENALEHHHHHH	not failed
MTRRAAEEILPSSLFRDPDTERVTARTGAYLKIGVIAPALMVADVWLAQQLFPGFDAGAQFISELGGPEAPMPEIFNYGMVIAGIAGLFAGAGFAHALEHAGGRRVVSAFAGLFVALTGLGAIFAGIFHWPDPMHRACGVGLGIQFAPLFAAWALWGKPDYRRLAQFSLGWFFGLLLVFALLTGVWNVRTGYDVGYWQRGHAFLGLLWLAIAAWTLERGWRAAVMSEIETASA	failed
FLILLRKTLEQLQEKDTGNIFSEPVPLSEVPDYLDHIKKPMDFFTMKQNLEAYRYLNFDDFEEDFNLIVSNCLKYNAKDTIFYRAAVRLREQGGAVLRQARRQAEKMG	not failed
MASEVVRDSLWRYFAEFVGTFILMLFGDGAVVASLVTNGTSPGYGFIMISWGFGVVLAIYAVGPISGAHINPNVTLAFAVTKRMKWRDVIPYILFQTLGAAAAAGILLAWWGSIITKMDPPPTLYAQVGASFFTEYPNPSFWGQYWPKELLLPNSASGTSLFSEVNQVFPLWIGAFAELLMTFLLLLIVLAVTDTDSPFFNQSLAPWAIGIGYVMPFLLFEAQLTGGMINEARSWGPMLALYLFGYRTGAFNFRGQYFFVYGIPDFIGGILGALFWDYVLKPYLKYLKSNNKK	failed
MLELRPARAADVPAIAAMHAASWRASYRGILPDDYLDRYAADERLSLWRRRFETASPPWVRLACWDGEPVGFVCLLPEEAPELGVYLDNLHVLPGQQGRGIGRALMAAAAAEAERIAPGRPLYLWVYERNADACAAYDKMGGVVMARREVDTAAGTRAIALRYSWP	failed
MKEDIVSGTVKRVERHGIIVEVVAGKLDALIPRDQMIPRENFRSGDRIRALFLRVEEIGNTGRKQVILSRTSGDFLVKLYANEVPLEHHHHHH	failed
MKSTEKKELSHFRLKLETYLNEHFPEMSGNNPFITARSDEALTAYCDAVAQGFSHPEAESMASEVLYQGLHFSRYDTLVSVLEREFEQELPSPLPERLAPILLKNKAIQSVFAKYDLTDDFEASPEYEHLYTELTGTIVLLIESNHLPTIGGGNDTV	not failed
MLDNHDLIVSSVEKNSPAWDAGLTTEDVIVAIDGLRLLDNELDNRLKDFKPKQTITVTYFRRDKLITSRLKLAAIPKNKLKIIPIAKASVLEHHHHHH	not failed
MVCCPVNENAAALVVSDGRVMIWELKSAVCNRNSRNSSSGVSPLYSPVSFCGIPVGVLQNKLPDLSLDNMIGQSAIAGEEHPRGSILREVHLKFLLTGLLSGLPAPQFAIRMCPPLTTKNIKMYQPLLAVGTSNGSVLVYHLTSGLLHKELSIHSCEVKGIEWTSLTSFLSFATSTPNNMGLVRNELQLVDLPTGRSIAFRGERGNDESAIEMIKVSHLKQYLAVVFRDKPLELWDVRTCTLLREMSKNFPTITALEWSPSHNLKSLRKKQLATREAMARQTVVSDTELSIVESSVISLLQEAESKSELSQNISARGHFVFTDIDGQVYHLTVEGNSVKDSARIPPDGSMGSITCIAWKGDTLVLGDMDGNLNFWDLKGRVSRGIPTHRSWVRKIRFAPGKGNQKLIAMYNDGAEVWDTKEVQMVSSLRSGRNVTFRILDVDWCTSDKVILASDDGCIRVLEMSMKSACFRMDEQELTEPVWCPYLLVPRASLALKAFLLHQPWNGQYSLDISHVDYPENEEIKNLLQEQLNSLSNDIKKLLLDPEFTLLQRCLLVSRLYGDESELHFWTVAAHYLHSLSQEKSASTTAPKEAAPRDKLSNPLDICYNVLCENAYFQKFQLERVNLQEVKRSTYDHTRKCTDQLLLLGQTDRAVQLLLETSADNQHYYCDSLKACLVTTVTSSGPSQSTIKLVATNMIANGKLAEGVQLLCLIDKAADACRYLQTYGEWNRAAWLAKVRLNPEECADVLRRWVDHLCSPQVNQKSKALLVLLSLGCFFSVAETLHSMRYFDRAALFVEACLKYGAFEVTEDTEKLITAIYADYARSLKNLGFKQGAVLFASKAGAAGKDLLNELESPKEEPIEE	failed
MLNKFKKIVGVSVLVGCLGVLQAKNSLFVLPYEQKDALNSLVSGISNARESVKIAIYSFTHRDIARAIKSVASRGIKVQIIYDYESNHHNKQSTIGYLDKYPNTKVCLLKGLKAKNGNYYGIMHQKVAIIDDKIVFLGSANWSKNAFENNYEVLLKTDDTETILKAKSYYQKMLGSCVGF	failed
MNQEKIADLKNWMHQEKIDFTYISDPGHIAYFSGYESEPHERVLALFIAADDQSFLFTPALEVEDAEKSSWTYPVYGYLDSENPWEKIAALLNKRTQGTPRFALEKQALSLARFDQLKTYFPASDFSHDVTPLIEKLQLIKTEPEIQRLLEAGSWADVAFEIGFKAIQAGVAEQEIVAEIEYQLKRQGIRSMSFDTLVLTGKNGASPHGVPGETKIEPHDLVLFDLGVVHNGYCSDATRTVSYLEPSDFQKEIYGIVLEAQLAATEAVKPGVTAGELDDIARGVITKAGYGEYFNHRLGHGIGTTVHEYPSLVHGNDLVIEEGMCFSIEPGIYIPGKVGVRIEDCLHVTKTGSEPFTKTTKELQIIQ	failed
MAILEYIMLLFIGLIAGTVGSLVGLGGGIIIVPLLIGLHSLSPQLAVGTSMVTVVFTGLSSTLTYMKHKRVDYKSGLILFIGSGPGGIIGSWANKFLNQDTFSLYFGIFLIFVSILLMLRDKLKPLSLSNTSVIKRSFTDNDGNTVHYQFPPFLAIFIAFIVGFISGLFGIGGGALLVPAMMLLFAFPAHIAVATSMFIVFLSAIVSSATHISLGNVSWIYALILIPGAWIGGKIGAYINTKLSGNAVINLLRITLIILGTRLIIISLL	failed
